Reference: patent publication US12295987B2, “Method of using a GIP/GLP1 co-agonist for diabetes” (Eli Lilly and Company, priority 2018, dated 2025)

Each substance was assayed against T1, human gastric inhibitory peptide receptor (hGIPR) (Homo sapiens, UniProt P48546) (assay: cAMP pharmacological functional assay in presence of 0.1% casein, hGIPR). Conditions: ratio of hGIPR to hGLP1R cAMP EC50 ratios.
T1 construct: expressed in transfected cells; host or cells: HEK293
T1 sequence (P48546 22-466): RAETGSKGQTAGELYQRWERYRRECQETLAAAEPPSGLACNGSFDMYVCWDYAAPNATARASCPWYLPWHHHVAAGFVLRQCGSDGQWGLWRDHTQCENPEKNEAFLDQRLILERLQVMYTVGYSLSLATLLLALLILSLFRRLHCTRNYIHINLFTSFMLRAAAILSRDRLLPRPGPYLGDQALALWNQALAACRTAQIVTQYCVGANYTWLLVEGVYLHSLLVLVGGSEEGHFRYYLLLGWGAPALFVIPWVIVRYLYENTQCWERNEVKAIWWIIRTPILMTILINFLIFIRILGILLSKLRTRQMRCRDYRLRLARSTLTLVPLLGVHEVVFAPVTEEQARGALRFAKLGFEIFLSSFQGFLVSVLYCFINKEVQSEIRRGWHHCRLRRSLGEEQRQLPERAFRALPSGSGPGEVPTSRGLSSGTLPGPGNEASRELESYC
Assay type: cell-based

| Substance | [hGIPR/hGLP1R] EC50 Ratio |
| --- | --- |
| Y-Aib-EGT-αMeF(2F)-TSDLSI-αMeL-LD-Orn-K((2-[2-(2-Amino-ethoxy)-ethoxy]-acetyl)2-(γGlu)-CO—(CH2)16—CO2H)AQ-Aib-AFI-(D-Glu)-αMeY-LIEGGPSSGAPPPS-NH2 (YXEGTXTSDLSIXLDXKAQXAFIXXLIEGGPSSGAPPPS; Aib, Orn, αMe residues, lipidated Lys, D-Glu, amide; (2)..(2) Xaa at position 2 is Aib; (6)..(6) Xaa at position 6 is alpha-methyl-Phe(2F); (13)..(13) Xaa at position 13 is alpha-methyl-Leu; (16)..(16) Xaa at position 16 is Orn; MOD_RES (17)..(17) Lys at position 17 is chemically modified by conjugation of the epsilon-amino group of the Lys side chain with (2-[2-(2-amino-ethoxy)-ethoxy]-acetyl)2-(gamma-Glu)-CO-(CH2)16- CO2H; (20)..(20) Xaa at positi) [Peptide 244] | 6.41 |
| Y-Aib-EGT-αMeF(2F)-TSDLSI-αMeL-LD-Orn-K((2-[2-(2-Amino-ethoxy)-ethoxy]-acetyl)2-(γGlu)-CO—(CH2)16—CO2H)AQ-Aib-EFI-(D-Glu)-αMeY-LIEGGPSSGAPPPS-NH2 (YXEGTXTSDLSIXLDXKAQXEFIXXLIEGGPSSGAPPPS; Aib, Orn, αMe residues, lipidated Lys, D-Glu, amide; (2)..(2) Xaa at position 2 is Aib; (6)..(6) Xaa at position 6 is alpha-methyl-Phe(2F); (13)..(13) Xaa at position 13 is alpha-methyl-Leu; (16)..(16) Xaa at position 16 is Orn; MOD_RES (17)..(17) Lys at position 17 is chemically modified by conjugation of the epsilon-amino group of the Lys side chain with (2-[2-(2-amino-ethoxy)-ethoxy]-acetyl)2-(gamma-Glu)-CO-(CH2)16- CO2H; (20)..(20) Xaa at positi) [Peptide 238] | 6.37 |
| Y-Aib-EGT-αMeF(2F)-TSDLSI-αMeL-LD-Orn-K((2-[2-(2-Amino-ethoxy)-ethoxy]-acetyl)2-(γGlu)-CO—(CH2)16—CO2H)AQ-Aib-TFI-(D-Glu)-αMeY-LIEGGPSSGAPPPS-NH2 (YXEGTXTSDLSIXLDXKAQXTFIXXLIEGGPSSGAPPPS; Aib, Orn, αMe residues, lipidated Lys, D-Glu, amide; (2)..(2) Xaa at position 2 is Aib; (6)..(6) Xaa at position 6 is alpha-methyl-Phe(2F); (13)..(13) Xaa at position 13 is alpha-methyl-Leu; (16)..(16) Xaa at position 16 is Orn; MOD_RES (17)..(17) Lys at position 17 is chemically modified by conjugation of the epsilon-amino group of the Lys side chain with (2-[2-(2-amino-ethoxy)-ethoxy]-acetyl)2-(gamma-Glu)-CO-(CH2)16- CO2H; (20)..(20) Xaa at positi) [Peptide 243] | 7.12 |
| Y-Aib-EGT-αMeF(2F)-TSDLSI-αMeL-LDEK((2-[2-(2-Amino-ethoxy)-ethoxy]-acetyl)2-(γGlu)-CO—(CH2)18—CO2H)AQ-Aib-EFI-(D-Glu)-YLIEGGPSSGAPPPS-NH2 (YXEGTXTSDLSIXLDEKAQXEFIXYLIEGGPSSGAPPPS; Aib, αMeF(2F), αMeL, D-Glu; lipidated K; amide; (2)..(2) Xaa at position 2 is Aib; (6)..(6) Xaa at position 6 is alpha-methyl-Phe(2F); (13)..(13) Xaa at position 13 is alpha-methyl-Leu; MOD_RES (17)..(17) Lys at position 17 is chemically modified by conjugation of the epsilon-amino group of the Lys side chain with (2-[2-(2-amino-ethoxy)-ethoxy]-acetyl)2-(gamma-Glu)-CO-(CH2)18- CO2H; (20)..(20) Xaa at position 20 is Aib; (24)..(24) Xaa at positi) [Peptide 183] | 3.68 |
| Y-Aib-EGT-αMeF(2F)-TSDQSI-αMeL-LDEK((2-[2-(2-Amino-ethoxy)-ethoxy]-acetyl)2-(γGlu)-CO—(CH2)18—CO2H)AQ-Aib-EFI-(D-Glu)-YLIEGGPSSGAPPPS-NH2 (YXEGTXTSDQSIXLDEKAQXEFIXYLIEGGPSSGAPPPS; Aib, αMeF(2F), αMeL, D-Glu; lipidated K; amide; (2)..(2) Xaa at position 2 is Aib; (6)..(6) Xaa at position 6 is alpha-methyl-Phe(2F); (13)..(13) Xaa at position 13 is alpha-methyl-Leu; MOD_RES (17)..(17) Lys at position 17 is chemically modified by conjugation of the epsilon-amino group of the Lys side chain with (2-[2-(2-amino-ethoxy)-ethoxy]-acetyl)2-(gamma-Glu)-CO-(CH2)18- CO2H; (20)..(20) Xaa at position 20 is Aib; (24)..(24) Xaa at positi) [Peptide 187] | 6.57 |
| Y-Aib-EGT-αMeF(2F)-TSDVSI-αMeL-LD-Orn-K((2-[2-(2-Amino-ethoxy)-ethoxy]-acetyl)2-(γGlu)-CO—(CH2)16—CO2H)AQ-Aib-AFI-(D-Glu)-αMeY-LIEGGPSSGAPPPS-NH2 (YXEGTXTSDVSIXLDXKAQXAFIXXLIEGGPSSGAPPPS; Aib, Orn, αMe residues, lipidated Lys, D-Glu, amide; (2)..(2) Xaa at position 2 is Aib; (6)..(6) Xaa at position 6 is alpha-methyl-Phe(2F); (13)..(13) Xaa at position 13 is alpha-methyl-Leu; (16)..(16) Xaa at position 16 is Orn; MOD_RES (17)..(17) Lys at position 17 is chemically modified by conjugation of the epsilon-amino group of the Lys side chain with (2-[2-(2-amino-ethoxy)-ethoxy]-acetyl)2-(gamma-Glu)-CO-(CH2)16- CO2H; (20)..(20) Xaa at positi) [Peptide 242] | 2.85 |
| Y-Aib-EGT-αMeF(2F)-TSDVSI-αMeL-LD-Orn-K((2-[2-(2-Amino-ethoxy)-ethoxy]-acetyl)2-(γGlu)-CO—(CH2)16—CO2H)AQ-Aib-TFI-(D-Glu)-αMeY-LIEGGPSSGAPPPS-NH2 (YXEGTXTSDVSIXLDXKAQXTFIXXLIEGGPSSGAPPPS; Aib, Orn, αMe residues, lipidated Lys, D-Glu, amide; (2)..(2) Xaa at position 2 is Aib; (6)..(6) Xaa at position 6 is alpha-methyl-Phe(2F); (13)..(13) Xaa at position 13 is alpha-methyl-Leu; (16)..(16) Xaa at position 16 is Orn; MOD_RES (17)..(17) Lys at position 17 is chemically modified by conjugation of the epsilon-amino group of the Lys side chain with (2-[2-(2-amino-ethoxy)-ethoxy]-acetyl)2-(gamma-Glu)-CO-(CH2)16- CO2H; (20)..(20) Xaa at positi) [Peptide 241] | 3.77 |
| Y-Aib-EGT-αMeF(2F)-TSDYSI-Aib-LD-Orn-K((2-[2-(2-Amino-ethoxy)-ethoxy]-acetyl)2-(Glu)-CO—(CH2)16—CO2H)AQ-Aib-EFI-(D-Glu)-YLIEGGPSSGAPPPS-NH2 (YXEGTXTSDYSIXLDXKAQXEFIXYLIEGGPSSGAPPPS; Aib, Orn, αMeF(2F), lipidated Lys, D-Glu, amide; (2)..(2) Xaa at position 2 is Aib; (6)..(6) Xaa at position 6 is alpha-methyl-Phe(2F); (13)..(13) Xaa at position 13 is Aib; (16)..(16) Xaa at position 16 is Orn; MOD_RES (17)..(17) Lys at position 17 is chemically modified by conjugation of the epsilon-amino group of the Lys side chain with (2-[2-(2-amino-ethoxy)-ethoxy]-acetyl)2-(gamma-Glu)-CO-(CH2)16- CO2H; (20)..(20) Xaa at position 20 is Aib;) [Peptide 247] | 4.20 |
| Y-Aib-EGT-αMeF(2F)-TSDYSI-Aib-LD-Orn-K((2-[2-(2-Amino-ethoxy)-ethoxy]-acetyl)2-(γGlu)-CO—(CH2)18—CO2H)AQ-Aib-EFI-(D-Glu)-YLIEGGPSSGAPPPS-NH2 (YXEGTXTSDYSIXLDXKAQXEFIXYLIEGGPSSGAPPPS; Aib, Orn, αMeF(2F), lipidated Lys, D-Glu, amide; (2)..(2) Xaa at position 2 is Aib; (6)..(6) Xaa at position 6 is alpha-methyl-Phe(2F); (13)..(13) Xaa at position 13 is Aib; (16)..(16) Xaa at position 16 is Orn; MOD_RES (17)..(17) Lys at position 17 is chemically modified by conjugation of the epsilon-amino group of the Lys side chain with (2-[2-(2-amino-ethoxy)-ethoxy]-acetyl)2-(gamma-Glu)-CO-(CH2)18- CO2H; (20)..(20) Xaa at position 20 is Aib;) [Peptide 250] | 4.34 |
